Holding throughout (test): cell-based or functional assay
In assay [1] the target is human IL-6 (human, UniProt P05231 30-212).
Assay [2] concerns the target T1, cyno IL-6 (cynomolgus monkey, UniProt P79341 28-212, limits assumed).
T1 sequence (looked up): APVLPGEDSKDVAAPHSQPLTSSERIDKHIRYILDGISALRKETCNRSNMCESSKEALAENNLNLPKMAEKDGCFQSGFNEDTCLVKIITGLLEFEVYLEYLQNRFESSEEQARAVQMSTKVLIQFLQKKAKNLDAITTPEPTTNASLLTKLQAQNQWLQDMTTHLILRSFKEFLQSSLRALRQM

The target of assay [3] is human TNF-α (human, UniProt P01375 77-233).
In assay [4] the target is cyno TNF-α (cynomolgus monkey, UniProt P79337 77-233).

Consider seven molecules from patent US20240301049A1 (Ablynx, published 2024).

Chain of human TNF-α (P01375 77-233 limits assumed): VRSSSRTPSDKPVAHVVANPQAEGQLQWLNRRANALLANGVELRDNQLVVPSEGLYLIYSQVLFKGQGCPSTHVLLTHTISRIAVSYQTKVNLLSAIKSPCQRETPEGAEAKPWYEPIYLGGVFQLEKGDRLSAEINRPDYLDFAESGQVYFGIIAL
Chain of cyno TNF-α (P79337 77-233 limits assumed): as the sequence (P01375 77-233 limits assumed) above, with L37V, R44T, T72N, R138L counted along it

B1: F027201026 (bispecific antibody)
chain: EVQLVESGGGVVQPGGSLRLSCTASGFTFSTADMGWFRQAPGKGREFVARISGIDGTTYYDEPVKGRFTISRDNSKNTVYLQMNSLRPEDTALYYCRSPRYADQWSAYDYWGQGTLVKVSSGGGGSGGGSEVQLVESGGGVVQPGGSLRLSCAASGFTFRSFGMSWVRQAPGKGPEWVSSISGSGSDTLYADSVKGRFTISRDNSKNTLYLQMNSLRPEDTALYYCTIGGSLSRSSQGTLVTVSSGGGGSGGGSDVQLVESGGGVVQPGGSLRLSCAASGRTFSNYAMAWFRQAPGKEREFVAVISYAGGRTYYADSVKGRFTISRDNAKNTVYLQMNSLRPEDTALYYCAAVDSPLIATHPRGYDYWGQGTLVTVSSGGGGSGGGSEVQLVESGGGVVQPGGSLRLSCAASGIIFSINAMGWYRQAPGKQRELVADIFPFGSTEYADSVKGRFTISRDNAKNTVYLQMNSLRPEDTALYYCHSYDPRGDDYWGQGTLVTVSS
Consider B1, for which the “IC50 hIL-6 TF1 proliferation assay” value in assay [1] stood at 303 pM. Besides, in assay [2], the “Ratio IC50 cyno IL-6/hIL-6” value was determined as 1.2 ratio. In addition, the “IC50 hTNF-α Nfkb assay” value in assay [3] is 85.2 pM. Also, the “Ratio IC50 cyno TNFα/hTNFα” value in assay [4] came out at 2.2 ratio.

B2: F027200987 (bispecific antibody)
chain: EVQLVESGGGVVQPGGSLRLSCAASGFSLDYYGVGWFRQAPGKEREGVSCISSSEGDTYYADSVKGRFTISRDNAKNTVYLQMNSLRPEDTALYYCATDLSDYGVCSRWPSPYDYWGQGTLVKVSSGGGGSGGGSEVQLVESGGGVVQPGGSLRLSCAASGFTFRSFGMSWVRQAPGKGPEWVSSISGSGSDTLYADSVKGRFTISRDNSKNTLYLQMNSLRPEDTALYYCTIGGSLSRSSQGTLVTVSSGGGGSGGGSEVQLVESGGGVVQPGGSLRLSCAASGFTLAYYAIGWFRQAPGKEREGVSCISGSVGTTYYADSVKGRFTISRDNAKNTVYLQMNSLRPEDTALYYCVRSSWFDCGVQGRDLGNEYDYRGQGTLVTVSSGGGGSGGGSEVQLVESGGGVVQPGGSLRLSCTASGFTFSTADMGWFRQAPGKGREFVARISGIDGTTYYDEPVKGRFTISRDNSKNTVYLQMNSLRPEDTALYYCRSPRYADQWSAYDYWGQGTLVKVSS
With B2, the “IC50 hIL-6 TF1 proliferation assay” value in assay [1] came out at 143 pM. The “Ratio IC50 cyno IL-6/hIL-6” value in assay [2] stood at 29.4 ratio.

B3: F027200989 (bispecific antibody)
chain: EVQLVESGGGVVQPGGSLRLSCTASGFTFSTADMGWFRQAPGKGREFVARISGIDGTTYYDEPVKGRFTISRDNSKNTVYLQMNSLRPEDTALYYCRSPRYADQWSAYDYWGQGTLVKVSSGGGGSGGGSEVQLVESGGGVVQPGGSLRLSCAASGFSLDYYGVGWFRQAPGKEREGVSCISSSEGDTYYADSVKGRFTISRDNAKNTVYLQMNSLRPEDTALYYCATDLSDYGVCSRWPSPYDYWGQGTLVKVSSGGGGSGGGSEVQLVESGGGVVQPGGSLRLSCAASGFTFRSFGMSWVRQAPGKGPEWVSSISGSGSDTLYADSVKGRFTISRDNSKNTLYLQMNSLRPEDTALYYCTIGGSLSRSSQGTLVTVSSGGGGSGGGSEVQLVESGGGVVQPGGSLRLSCAASGFTLAYYAIGWFRQAPGKEREGVSCISGSVGTTYYADSVKGRFTISRDNAKNTVYLQMNSLRPEDTALYYCVRSSWFDCGVQGRDLGNEYDYRGQGTLVTVSS
With B3, the “IC50 hIL-6 TF1 proliferation assay” value in assay [1] was 127 pM. For the same molecule, the “Ratio IC50 cyno IL-6/hIL-6” value in assay [2] stood at 38.3 ratio.

B4: F027200153 (bispecific antibody)
chain: EVQLVESGGGVVQPGGSLRLSCTASGFTFSTADMGWFRQAPGKGREFVARISGIDGTTYYDEPVKGRFTISRDNSKNTVYLQMNSLRPEDTALYYCRSPRYADQWSAYDYWGQGTLVKVSSGGGGSGGGSEVQLVESGGGVVQPGGSLRLSCAASGFTFRSFGMSWVRQAPGKGPEWVSSISGSGSDTLYADSVKGRFTISRDNSKNTLYLQMNSLRPEDTALYYCTIGGSLSRSSQGTLVTVSSGGGGSGGGSEVQLVESGGGVVQPGGSLRLSCAASGIIFSINAMGWYRQAPGKQRELVADIFPFGSTEYADSVKGRFTISRDNAKNTVYLQMNSLRPEDTALYYCHSYDPRGDDYWGQGTLVTVSSGGGGSGGGSEVQLVESGGGVVQPGGSLRLSCAASGRTFSSYVMGWFRQAPGKEREFVSTINWAGSRGYYADSVKGRFTISRDNAKNTVYLQMNSLRPEDTALYYCAASAGGFLVPRVGQGYDYWGQGTLVTVSS
Consider B4, for which, in assay [1], the “IC50 hIL-6 TF1 proliferation assay” value was determined as 1030 pM. Moreover, in assay [2], the “Ratio IC50 cyno IL-6/hIL-6” value was 2.5 ratio. For the same molecule, the “IC50 hTNF-α Nfkb assay” value in assay [3] was determined as 139 pM. For the same molecule, the “Ratio IC50 cyno TNFα/hTNFα” value in assay [4] worked out at 2.7 ratio.

B5: F027200167 (bispecific antibody)
chain: EVQLVESGGGVVQPGGSLRLSCAASGIIFSINAMGWYRQAPGKQRELVADIFPFGSTEYADSVKGRFTISRDNAKNTVYLQMNSLRPEDTALYYCHSYDPRGDDYWGQGTLVTVSSGGGGSGGGSEVQLVESGGGVVQPGGSLRLSCAASGRTFSSYVMGWFRQAPGKEREFVSTINWAGSRGYYADSVKGRFTISRDNAKNTVYLQMNSLRPEDTALYYCAASAGGFLVPRVGQGYDYWGQGTLVTVSSGGGGSGGGSEVQLVESGGGVVQPGGSLRLSCAASGFTFRSFGMSWVRQAPGKGPEWVSSISGSGSDTLYADSVKGRFTISRDNSKNTLYLQMNSLRPEDTALYYCTIGGSLSRSSQGTLVTVSSGGGGSGGGSEVQLVESGGGVVQPGGSLRLSCTASGFTFSTADMGWFRQAPGKGREFVARISGIDGTTYYDEPVKGRFTISRDNSKNTVYLQMNSLRPEDTALYYCRSPRYADQWSAYDYWGQGTLVKVSS
Take B5: the “IC50 hIL-6 TF1 proliferation assay” value in assay [1] is 1270 pM. The “Ratio IC50 cyno IL-6/hIL-6” value in assay [2] worked out at 2.5 ratio. Besides, the “IC50 hTNF-α Nfkb assay” value in assay [3] was 171 pM. The “Ratio IC50 cyno TNFα/hTNFα” value in assay [4] stood at 3.1 ratio.

B6: F027201028 (bispecific antibody)
chain: DVQLVESGGGVVQPGGSLRLSCAASGRTFSNYAMAWFRQAPGKEREFVAVISYAGGRTYYADSVKGRFTISRDNAKNTVYLQMNSLRPEDTALYYCAAVDSPLIATHPRGYDYWGQGTLVTVSSGGGGSGGGSEVQLVESGGGVVQPGGSLRLSCAASGIIFSINAMGWYRQAPGKQRELVADIFPFGSTEYADSVKGRFTISRDNAKNTVYLQMNSLRPEDTALYYCHSYDPRGDDYWGQGTLVTVSSGGGGSGGGSEVQLVESGGGVVQPGGSLRLSCAASGFTFRSFGMSWVRQAPGKGPEWVSSISGSGSDTLYADSVKGRFTISRDNSKNTLYLQMNSLRPEDTALYYCTIGGSLSRSSQGTLVTVSSGGGGSGGGSEVQLVESGGGVVQPGGSLRLSCTASGFTFSTADMGWFRQAPGKGREFVARISGIDGTTYYDEPVKGRFTISRDNSKNTVYLQMNSLRPEDTALYYCRSPRYADQWSAYDYWGQGTLVKVSS
With B6, the “IC50 hIL-6 TF1 proliferation assay” value in assay [1] was 293 pM. Further, the “Ratio IC50 cyno IL-6/hIL-6” value in assay [2] amounted to 1.1 ratio. The “IC50 hTNF-α Nfkb assay” value in assay [3] worked out at 61 pM. In assay [4], the “Ratio IC50 cyno TNFα/hTNFα” value stood at 3.1 ratio.

B7: F027201027 (bispecific antibody)
chain: DVQLVESGGGVVQPGGSLRLSCAASGRTFSNYAMAWFRQAPGKEREFVAVISYAGGRTYYADSVKGRFTISRDNAKNTVYLQMNSLRPEDTALYYCAAVDSPLIATHPRGYDYWGQGTLVTVSSGGGGSGGGSEVQLVESGGGVVQPGGSLRLSCAASGFTFRSFGMSWVRQAPGKGPEWVSSISGSGSDTLYADSVKGRFTISRDNSKNTLYLQMNSLRPEDTALYYCTIGGSLSRSSQGTLVTVSSGGGGSGGGSEVQLVESGGGVVQPGGSLRLSCAASGIIFSINAMGWYRQAPGKQRELVADIFPFGSTEYADSVKGRFTISRDNAKNTVYLQMNSLRPEDTALYYCHSYDPRGDDYWGQGTLVTVSSGGGGSGGGSEVQLVESGGGVVQPGGSLRLSCTASGFTFSTADMGWFRQAPGKGREFVARISGIDGTTYYDEPVKGRFTISRDNSKNTVYLQMNSLRPEDTALYYCRSPRYADQWSAYDYWGQGTLVKVSS
Consider B7, for which the “IC50 hIL-6 TF1 proliferation assay” value in assay [1] is 317 pM. In assay [2], the “Ratio IC50 cyno IL-6/hIL-6” value was found to be 0.6 ratio. In assay [3], the “IC50 hTNF-α Nfkb assay” value was 60.3 pM. Besides, the “Ratio IC50 cyno TNFα/hTNFα” value in assay [4] was determined as 2.5 ratio.
